Data reported in patent publication US20220363777A1 (GSP ENTERPRISE, published 2022).

What was measured:
[1] = molecular target: T1, human Cripto-1 in human cancer tissue (tissue array BCN801) (human, UniProt P13385 31-150, GPI-anchor (thought to be bound to the cell membrane surface by GPI-anchors)); assay: immunostaining of a human cancer tissue array, ALEXA568-labeled anti-human IgG secondary antibody
T1 construct: whole, on cells; Endogenous protein detected by immunostaining of pancreas, thyroid, prostate, stomach, cervical, colorectal and breast cancer tissue; also called CR-1
T1 sequence (looked up): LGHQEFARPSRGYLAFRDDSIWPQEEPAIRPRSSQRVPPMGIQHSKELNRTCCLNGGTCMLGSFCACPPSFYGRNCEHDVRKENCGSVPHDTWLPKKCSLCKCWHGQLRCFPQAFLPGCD
Description: Immunostaining was performed on a human cancer tissue array (BCN801, US Biomax Inc.). The #35 clone was used as a primary antibody. ALEXA568-labeled anti-human IgG goat antibody (Invitrogen) was used as a secondary antibody to detect human Cripto-1 in each cancer tissue (pancreas cancer tissue, thyroid gland cancer tissue, prostate cancer tissue, stomach cancer tissue, cervical cancer tissue, colorectal cancer tissue, and breast cancer tissue). These cancer tissues contained cancer stem cells as well as cancer cells, and Cripto-1 was thought to be bound to the surface of the cell membrane of the cancer stem cells by GPI-anchors. In a negative control experiment, the signal background was confirmed by using only the secondary antibody. FIGS. 3 to 5 show the results.

[2] = molecular target: T2, extracellular domain of human Cripto-1, soluble form, with N-terminal His-tag (human, limits assumed); assay: screening of a phage-displayed human antibody library
T2 construct: Prepared in soluble form by the method of Alam et al., Int J Mol Sci 2018; also called purified human Cripto-1; CR-1
T2 chain: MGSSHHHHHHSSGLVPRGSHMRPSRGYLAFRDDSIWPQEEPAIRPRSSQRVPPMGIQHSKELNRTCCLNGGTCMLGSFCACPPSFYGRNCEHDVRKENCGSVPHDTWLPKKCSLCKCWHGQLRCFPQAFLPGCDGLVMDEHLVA
Description: The extracellular domain of human Cripto-1 contains the amino acid sequence represented by SEQ ID NO: 11, and has a His-tag sequence having the amino acid sequence represented by SEQ ID NO: 12 at its N-terminus. The extracellular domain of human Cripto-1 was prepared in its soluble form in accordance with the method disclosed in Alam. et. al., Int J Mol Sci. 2018, 26; 19 (11). The antibody library used as a screening target is described in Sakai, K. et al., Biochemistry 46 (1): 253-62, and the subclass of the antibody is IgG.

binding result [1]: binds
binding result [2]: binds
B1: #35 clone antibody (human-derived anti-human Cripto-1 monoclonal antibody) (antibody, V domains shown)
VH: QVQLQQSGPGLVKPSQTLSLTCAISGNSVSSNSAAWNWIRRSPSRGLEWLGRTYYRSKWYNDYAVSVKSRITIKPDTSKNQFSLQLNSVTPEDTAMYYCARGFCSGGRCYSFDYWGPGTLVTVSS
VL: QSVLTQPASVSGSPGQSITISCTGTDSDVGAYGSASWYRHSPGKAPQLIIYDVTNRPSGVSNRFYGSKSGNTASLTISGLQAEDEADYYCQAWDSGIHVVFGGGTQLTVLG
notes: The library subclass is IgG; also called Clone #35
